Results on 36 sequences are retold here after the supplement of paper PMC10567573.

± gives the standard deviation.

The data set can be described thus: protein stability index of a GFP-peptide fusion (GPS, HEK-293T) (PSI 1-6); higher = more stable. Particulars: c terminus: a fixed tail appended.
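Also: 24-mer peptide tiles fused after GFP, lentivirally expressed, FACS-sorted into six equal bins by GFP/DsRed ratio, decoded by Illumina sequencing, PSI is the read-weighted mean bin number.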

The sequence LGCYAVYSLLYLEHKGWYSWVLSM [CLPTM1] had a protein stability index (treatment: DMSO) of 3.04 ± 0.42 and a protein stability index (treatment: MLN4924 1 uM, 8 h) of 3.27 ± 0.65.
The sequence LGGAAFLGTAIFIEADRRRAQLHV [SPNS1] had a protein stability index (treatment: DMSO) of 2.35 ± 0.74 and a protein stability index (treatment: MLN4924 1 uM, 8 h) of 2.32 ± 0.53.
For LGKTEQGFENMDFFTLDLEHIADA [TRIM63], in that order: 3.85 ± 0.21 and 3.8 ± 0.12.
With LGQDRQVPLWGQLLLFLVFVIVLF [EMD], the protein stability index by setting is: (treatment: DMSO) 2.83 ± 0.58; (treatment: MLN4924 1 uM, 8 h) 2.79 ± 0.76.
The corresponding values for LGQEFDEVTADDRKVKSTITLDGG [FABP4] are 5.16 ± 0.21 and 5.32 ± 0.33.
Regarding LGTPTSSTPRPSITPTKKIELDRT [C2CD2L], the protein stability index came to 4.94 ± 0.18 (treatment: DMSO) and 4.88 ± 0.24 (treatment: MLN4924 1 uM, 8 h).
For LHKFPYRMVPALPPKRMLGADREF [SNX8], the protein stability index is 2.55 ± 0.15 (treatment: DMSO) and 2.67 ± 0.32 (treatment: MLN4924 1 uM, 8 h).
The corresponding values for LHSLDDFYIGKYFGGVLEYFMIQA [RHOBTB3] are 2.78 ± 0.37 and 2.8 ± 0.63.
With LHSQEDDDSSSESGSGNGSSTLNP [NOL4L], the protein stability index by setting is: (treatment: DMSO) 5.39 ± 0.2; (treatment: MLN4924 1 uM, 8 h) 5.48 ± 0.17.
LIGLISDRLRRNWPPSFLSEFRAL [SPNS1]: the protein stability index is, setting by setting: (treatment: DMSO) 2.19 ± 0.35; (treatment: MLN4924 1 uM, 8 h) 2.1 ± 0.2.
For LITIATFQIAANLSMERYALVFGV [SLC19A2], in that order: 3.02 ± 0.15 and 3.12 ± 0.59.
For LKEMYDADLLEEEVIISWSEKASK [EIF5], in that order: 3.33 ± 0.45 and 3.88 ± 0.44.
As to LKERCAQDACQAQAREKELLELQS [CCDC89], the protein stability index is, setting by setting: (treatment: DMSO) 4.1 ± 0.26; (treatment: MLN4924 1 uM, 8 h) 4 ± 0.51.
Turning to LKKPIKGKQAPRKKAQGKTQQNRK [KMT5A], the protein stability index runs as follows: (treatment: DMSO) 4.29 ± 0.2; (treatment: MLN4924 1 uM, 8 h) 4.45 ± 0.23.
Regarding LKLKNKLLQADREHLPVKPDTMEK [DENND6A], the protein stability index runs as follows: (treatment: DMSO) 4.35 ± 0.34; (treatment: MLN4924 1 uM, 8 h) 4.33 ± 0.22.
With LKLLNVLEEYITDEQKEEEEEEGE [FAM9B], the protein stability index was 4.94 ± 0.18 (treatment: DMSO) and 4.93 ± 0.29 (treatment: MLN4924 1 uM, 8 h).
For LKLMDRHKKDCAREKPFKCQECGK [ZNF75A], in that order: 3.74 ± 0.37 and 3.95 ± 0.28.
The corresponding values for LKLQTKTIKVSYARPSSASIRDAN [ELAVL3] are 2.77 ± 0.37 and 2.91 ± 0.32.
As for LKTSKMALSPSATAKRINRTSLSS [CDC14A], the protein stability index was 3.71 ± 0.26 (treatment: DMSO) and 3.54 ± 0.25 (treatment: MLN4924 1 uM, 8 h).
The corresponding values for LLDIKTRLEQEIATYRSLLEGQDA [KRT13] are 3.45 ± 0.19 and 3.51 ± 0.26.
For the sequence LLEDMRASEAFHWDERGRAAAYSP [ANKRD9], the protein stability index is, setting by setting: (treatment: DMSO) 2.7 ± 0.44; (treatment: MLN4924 1 uM, 8 h) 3.18 ± 0.54.
The corresponding values for LLGEETPMAADEGSAEKQAGEAHM [EHMT1] are 5.66 ± 0.31 and 5.57 ± 0.38.
The sequence LLKAGADVNKTDHSQRTALHLAAQ [INVS] showed a protein stability index (treatment: DMSO) of 4.11 ± 0.33 and a protein stability index (treatment: MLN4924 1 uM, 8 h) of 4.09 ± 0.17.
The corresponding values for LLKITIPNAFIGSDVVDWLYHNVE [DVL3] are 2.31 ± 0.63 and 2.26 ± 0.28.
With LLKTLYNSIKNEKLEWAIDEDELR [PSD2], the protein stability index is 2.61 ± 0.43 (treatment: DMSO) and 2.07 ± 0.32 (treatment: MLN4924 1 uM, 8 h).
For LLRTARVRRECWFLPTALLCAYGF [SLC19A2], in that order: 2.54 ± 0.8 and 2.54 ± 0.43.
LLYAQGLLAIQFLEFFYGIATATE [SLC19A2]: the protein stability index reads like this: (treatment: DMSO) 3.53 ± 0.64; (treatment: MLN4924 1 uM, 8 h) 3.2 ± 0.037.
For LMFLDICSELNKLCQHFEAVHSGT [SPACA9], in that order: 2.67 ± 0.72 and 2.4 ± 0.29.
Take LNDRLASYLDKVRALEEANTELEV [KRT17]: the protein stability index amounted to 4.03 ± 0.11 (treatment: DMSO) and 4.17 ± 0.17 (treatment: MLN4924 1 uM, 8 h).
LNELERLSNLVGKPSENHPLHNSG [MED27]: the protein stability index runs as follows: (treatment: DMSO) 4.06 ± 0.25; (treatment: MLN4924 1 uM, 8 h) 4.31 ± 0.24.
As for LNPHIHLMGDESACIAYIRITQYL [CAMK2A], the protein stability index amounted to 2.8 ± 0.44 (treatment: DMSO) and 2.71 ± 0.51 (treatment: MLN4924 1 uM, 8 h).
Regarding LPACTLCAGPLEDAVTIPCGHTFC [TRIM15], the protein stability index (treatment: DMSO) was 3.818 ± 0.022 and the protein stability index (treatment: MLN4924 1 uM, 8 h) came out at 4.16 ± 0.35.
As to LPDELGSQLPQVLHVSLGQKLVAA [MOSPD3], the protein stability index is, setting by setting: (treatment: DMSO) 3 ± 0.34; (treatment: MLN4924 1 uM, 8 h) 3.14 ± 0.089.
With LPHQSHRQRSSLAKINIVYQELNY [SCNN1D], the protein stability index runs as follows: (treatment: DMSO) 2.54 ± 0.23; (treatment: MLN4924 1 uM, 8 h) 2.54 ± 0.3.
Regarding LPKPPGTPVVTESTATSITLTWDS [PTPRD], the protein stability index (treatment: DMSO) was determined as 3.88 ± 0.087 and the protein stability index (treatment: MLN4924 1 uM, 8 h) is 3.88 ± 0.18.
For the sequence LPPDVTTQSVMGFDPLPPSDTIYS [TCF25], the protein stability index by setting is: (treatment: DMSO) 4.19 ± 0.16; (treatment: MLN4924 1 uM, 8 h) 4.37 ± 0.34.
